Test results as given in patent US20120196307.

How the values were obtained:
[1] = target: synaptotagmin-1, intact 65 kDa protein (rat) (UniProt P21707)
[2] = target: collapsin response mediator protein-2, intact (rat) (UniProt P47942)
[3] = tested on: GST-CRMP2 recombinant protein (Kinasource, cat# SU-040) [GST: P08515]
[4] = tested on: GST-synaptotagmin recombinant protein [GST: P08515]
GST-synaptotagmin recombinant protein [GST: P08515], sequence (P08515 whole entry, looked up): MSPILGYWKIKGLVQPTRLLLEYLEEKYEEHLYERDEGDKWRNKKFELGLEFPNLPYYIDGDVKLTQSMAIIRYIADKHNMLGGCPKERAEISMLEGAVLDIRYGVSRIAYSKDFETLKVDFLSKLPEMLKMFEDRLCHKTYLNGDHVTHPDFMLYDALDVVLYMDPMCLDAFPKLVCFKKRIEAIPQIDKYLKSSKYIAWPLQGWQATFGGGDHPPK

synaptotagmin-1, intact 65 kDa protein (rat), sequence (P21707 whole entry): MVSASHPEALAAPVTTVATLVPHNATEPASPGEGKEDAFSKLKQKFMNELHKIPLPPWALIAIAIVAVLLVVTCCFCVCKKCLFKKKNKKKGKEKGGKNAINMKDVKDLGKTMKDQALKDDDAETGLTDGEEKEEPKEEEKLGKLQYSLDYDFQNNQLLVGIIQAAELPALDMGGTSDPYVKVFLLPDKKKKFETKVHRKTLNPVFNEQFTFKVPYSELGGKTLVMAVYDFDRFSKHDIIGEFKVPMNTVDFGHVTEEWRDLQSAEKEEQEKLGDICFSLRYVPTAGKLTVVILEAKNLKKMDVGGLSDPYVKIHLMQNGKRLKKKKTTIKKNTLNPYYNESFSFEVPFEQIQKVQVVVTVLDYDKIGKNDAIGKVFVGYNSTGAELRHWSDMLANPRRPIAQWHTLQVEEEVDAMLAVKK
GST-CRMP2 recombinant protein (Kinasource, cat# SU-040) [GST: P08515], sequence (P08515 whole entry, looked up): as the sequence (P08515 whole entry, looked up) above

Substance	in vitro protease digestion, Western blot [1]	in vitro protease digestion of naive brain lysate, Western blot [2]	in vitro digestion of the purified protein, Coomassie and Western blot [3]	in vitro digestion of the recombinant protein, Western blot [4]
MMP-2	Overall, Syt1 was relatively resistant to these proteases and under no conditions was the TBI-associated characteristic BDP-33k detected (results not shown).			
MMP-9	Overall, Syt1 was relatively resistant to these proteases and under no conditions was the TBI-associated characteristic BDP-33k detected (results not shown).			
calpain (purified; isoform not named where the result is told)		in vitro calpain treatment of naive brain lysate resulted in the same fragmentation pattern observed after TBI in vivo, with the 62 kDa and 66 kDa intact CRMP-2 bands disappearing	purified GST-CRMP-2 protein digested by calpain. The obtained cleavage fragments were used to determine the calpain cleavage site.	The recombinant synaptotagmin was cleaved in vitro to a 21 kDa BDP as detected with anti-GST.
cathepsin B	Overall, Syt1 was relatively resistant to these proteases and under no conditions was the TBI-associated characteristic BDP-33k detected (results not shown).			
cathepsin D	Overall, Syt1 was relatively resistant to these proteases and under no conditions was the TBI-associated characteristic BDP-33k detected (results not shown).			
